Data: IntAct's records for PubMed 19966800

B1: Cytotoxicity-associated immunodominant antigen (Helicobacter pylori), P55980 (parent)
chain: MTNETIDQTRTPDQTQSQTAFDPQQFINNLQVAFIKVDNVVASFDPDQKPIVDKNDRDNRQAFDGISQLREEYSNKAIKNPTKKNQYFSDFIDKSNDLINKDNLIDVESSTKSFQKFGDQRYQIFTSWVSHQKDPSKINTRSIRNFMENIIQPPIPDDKEKAEFLKSAKQSFAGIIIGNQIRTDQKFMGVFDESLKERQEAEKNGGPTGGDWLDIFLSFIFNKKQSSDVKEAINQEPVPHVQPDIATTTTDIQGLPPEARDLLDERGNFSKFTLGDMEMLDVEGVADIDPNYKFNQLLIHNNALSSVLMGSHNGIEPEKVSLLYAGNGGFGDKHDWNATVGYKDQQGNNVATLINVHMKNGSGLVIAGGEKGINNPSFYLYKEDQLTGSQRALSQEEIRNKVDFMEFLAQNNTKLDNLSEKEKEKFQNEIEDFQKDSKAYLDALGNDRIAFVSKKDTKHSALITEFNNGDLSYTLKDYGKKADKALDREKNVTLQGSLKHDGVMFVDYSNFKYTNASKNPNKGVGATNGVSHLEAGFNKVAVFNLPDLNNLAITSFVRRNLENKLTAKGLSLQEANKLIKDFLSSNKELAGKALNFNKAVAEAKSTGNYDEVKKAQKDLEKSLRKREHLEKEVEKKLESKSGNKNKMEAKAQANSQKDEIFALINKEANRDARAIAYTQNLKGIKRELSDKLEKISKDLKDFSKSFDEFKNGKNKDFSKAEETLKALKGSVKDLGINPEWISKVENLNAALNEFKNGKNKDFSKVTQAKSDLENSVKDVIINQKVTDKVDNLNQAVSVAKAMGDFSRVEQVLADLKNFSKEQLAQQAQKNEDFNTGKNSELYQSVKNSVNKTLVGNGLSGIEATALAKNFSDIKKELNEKFKNFNNNNNGLKNSTEPIYAKVNKKKTGQVASPEEPIYTQVAKKVNAKIDRLNQIASGLGGVGQAAGFPLKRHDKVDDLSKVGLSASPEPIYATIDDLGGPFPLKRHDKVDDLSKVGRSRNQELAQKIDNLNQAVSEAKAGFFGNLEQTIDKLKDSTKKNVMNLYVESAKKVPASLSAKLDNYAINSHTRINSNIQNGAINEKATGMLTQKNPEWLKLVNDKIVAHNVGSVSLSEYDKIGFNQKNMKDYSDSFKFSTKLNNAVKDIKSGFTHFLANAFSTGYYCLARENAEHGIKNVNTKGGFQKS

Variants of: B1
Conditions: with mark2_human MARK2, Q7KZI7
Chain of mark2_human MARK2, Q7KZI7 (Q7KZI7 whole entry): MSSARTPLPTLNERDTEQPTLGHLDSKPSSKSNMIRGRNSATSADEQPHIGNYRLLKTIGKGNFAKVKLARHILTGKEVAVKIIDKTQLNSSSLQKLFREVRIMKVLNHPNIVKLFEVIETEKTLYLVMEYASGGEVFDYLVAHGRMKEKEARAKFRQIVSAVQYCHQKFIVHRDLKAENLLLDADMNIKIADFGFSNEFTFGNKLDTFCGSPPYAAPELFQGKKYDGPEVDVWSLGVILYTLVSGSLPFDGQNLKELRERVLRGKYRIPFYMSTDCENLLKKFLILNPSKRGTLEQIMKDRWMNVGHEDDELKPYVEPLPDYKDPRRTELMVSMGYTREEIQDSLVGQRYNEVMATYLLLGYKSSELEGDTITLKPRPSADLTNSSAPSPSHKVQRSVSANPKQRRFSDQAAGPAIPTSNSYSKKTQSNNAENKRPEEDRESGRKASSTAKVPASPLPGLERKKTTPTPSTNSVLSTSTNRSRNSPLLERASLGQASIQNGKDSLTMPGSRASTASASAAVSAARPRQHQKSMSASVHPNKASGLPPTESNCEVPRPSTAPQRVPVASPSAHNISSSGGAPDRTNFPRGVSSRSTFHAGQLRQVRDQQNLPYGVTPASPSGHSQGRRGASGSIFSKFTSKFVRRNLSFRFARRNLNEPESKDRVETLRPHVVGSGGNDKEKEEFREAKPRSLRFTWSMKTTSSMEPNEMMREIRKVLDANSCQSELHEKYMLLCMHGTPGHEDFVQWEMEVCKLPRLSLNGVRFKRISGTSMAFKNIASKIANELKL
In the case of R952G, the “effect of a mutation on the interaction” value is reported as “decreasing interaction”. With L950G the “effect of a mutation on the interaction” value was “disrupting interaction”. With L959G the “effect of a mutation on the interaction” value was “disrupting interaction”. In the case of V956G, the “effect of a mutation on the interaction” value is reported as “disrupting interaction”.
